In publication PMC10604209, “Thermal Characterization and Interaction of the Subunits from the Multimeric Bacteriophage Endolysin PlyC” (Biology, 2023):

B1: PlyCA, the catalytic subunit of the endolysin PlyC (enzyme, UniProt Q7Y3F1 1-465, looked up)
chain: MSKKYTQQQYEKYLAQPANNTFGLSPQQVADWFMGQAGARPVINSYGVNASNLVSTYIPKMQEYGVSYTLFLMYTVFEGGGAGNWINHYMYDTGSNGLECLEHDLQYIHGVWETYFPPALSAPECYPATEDNAGALDRFYQSLPGRTWGDVMIPSTMAGNAWVWAYNYCVNNQGAAPLVYFGNPYDSQIDSLLAMGADPFTGGSITGDGKNPSVGTGNATVSASSEANREKLKKALTDLFNNNLEHLSGEFYGNQVLNAMKYGTILKCDLTDDGLNAILQLIADVNLQTNPNPDKPTVQSPGQNDLGSGSDRVAANLANAQAQVGKYIGDGQCYAWVGWWSARVCGYSISYSTGDPMLPLIGDGMNAHSIHLGWDWSIANTGIVNYPVGTVGRKEDLRVGAIWCATAFSGAPFYTGQYGHTGIIESWSDTTVTVLEQNILGSPVIRSTYDLNTFLSTLTGLITFK
B2: PlyCB, the cell wall binding subunit of the endolysin PlyC (PlyCB CBD, an octamer) (natural protein)
chain: MSKINVNVENVSGVQGFLFHTDGKESYGYRAFINGVEIGIKDIETVQGFQQIIPSINISKSDVEAIRKAMKK
notes: PlyCB, 8 kDa subunit of the streptococcal bacteriophage endolysin PlyC; Above about 74 °C in PBS the octamer is said to dissociate reversibly into a monomeric intermediate state; also called PlyCB octamer; PlyCB subunit; source: also as a subunit of the purified recombinant PlyC holoenzyme

Assays:
[1] = target: B2; assay: cell-based or functional assay
[2] = target: the molecule itself; assay: cross-linking; PlyCB CBD 1 mg/mL in PBS heated 10 min at temperatures up to 74.4 °C, amine cross-linking with 1 mM BS3 for 10 min, quenched with Tris, cooled on ice, SDS-PAGE
[3] = target: B1; assay: SEC; 500 uL ice-cold 19.5 uM PlyCA added rapidly to 500 uL 15.6 uM PlyCB CBD in PBS heated to 75 °C, cooled on ice 5 min, centrifuged, HiPrep 16/60 Sephacryl S-200 HR in PBS; the peak corresponding to native PlyC analysed by SDS-PAGE; conditions: both partners purified

Binder	bacteriolytic activity toward S. pyogenes (turbidity reduction assay) of ice-cold PlyCA mixed about 1:1 with PlyCB CBD heated to 75 °C and then rapidly cooled, relative to native PlyC [1]	binding result [2]	binding result [3]
B1	35 % of the relative bacteriolytic activity of native PlyC	–	–
B2	–	binds	binds
